From patent publication US20220040297A1 (Chugai, published 2022) come the findings set out here.

B1: GLS3000 R24E (antibody, name in Kabat numbering, V domains shown)
VH: QVQLVESGGGVVQPGRSLRLSCAASGFTFSNAWMHWVRQAPGKGLEWVAQIKAKSNNYATYYAESVKGRFTISRDDSKNSLYLQMNSLKTEDTAVYYCRYVHYGAYYGVDAWGQGTTVTVSS
VL: DIVMTQSPLSLPVTPGEPASISCESSQSLVHSNRNTYLHWYQQKPGQAPRLLIYKVSNRFSGVPDRFSGSGSGTDFTLKISRVEAEDVGVYYCGQGTQVPYTFGQGTKLEIK
notes: one-arm format as m2
B2: GLS3000 R29L (antibody, name in Kabat numbering, V domains shown)
VH: QVQLVESGGGVVQPGRSLRLSCAASGFTFSNAWMHWVRQAPGKGLEWVAQIKAKSNNYATYYAESVKGRFTISRDDSKNSLYLQMNSLKTEDTAVYYCRYVHYGAYYGVDAWGQGTTVTVSS
VL: DIVMTQSPLSLPVTPGEPASISCRSSQSLVHSNLNTYLHWYQQKPGQAPRLLIYKVSNRFSGVPDRFSGSGSGTDFTLKISRVEAEDVGVYYCGQGTQVPYTFGQGTKLEIK
notes: one-arm format as m2
B3: GLS3000 R24S (antibody, name in Kabat numbering, V domains shown)
VH: QVQLVESGGGVVQPGRSLRLSCAASGFTFSNAWMHWVRQAPGKGLEWVAQIKAKSNNYATYYAESVKGRFTISRDDSKNSLYLQMNSLKTEDTAVYYCRYVHYGAYYGVDAWGQGTTVTVSS
VL: DIVMTQSPLSLPVTPGEPASISCSSSQSLVHSNRNTYLHWYQQKPGQAPRLLIYKVSNRFSGVPDRFSGSGSGTDFTLKISRVEAEDVGVYYCGQGTQVPYTFGQGTKLEIK
notes: one-arm format as m2
B4: GLS3000 R45E (antibody, name in Kabat numbering, V domains shown)
VH: QVQLVESGGGVVQPGRSLRLSCAASGFTFSNAWMHWVRQAPGKGLEWVAQIKAKSNNYATYYAESVKGRFTISRDDSKNSLYLQMNSLKTEDTAVYYCRYVHYGAYYGVDAWGQGTTVTVSS
VL: DIVMTQSPLSLPVTPGEPASISCRSSQSLVHSNRNTYLHWYQQKPGQAPELLIYKVSNRFSGVPDRFSGSGSGTDFTLKISRVEAEDVGVYYCGQGTQVPYTFGQGTKLEIK
notes: one-arm format as m2
B5: GLS3000 R29D (antibody, name in Kabat numbering, V domains shown)
VH: QVQLVESGGGVVQPGRSLRLSCAASGFTFSNAWMHWVRQAPGKGLEWVAQIKAKSNNYATYYAESVKGRFTISRDDSKNSLYLQMNSLKTEDTAVYYCRYVHYGAYYGVDAWGQGTTVTVSS
VL: DIVMTQSPLSLPVTPGEPASISCRSSQSLVHSNDNTYLHWYQQKPGQAPRLLIYKVSNRFSGVPDRFSGSGSGTDFTLKISRVEAEDVGVYYCGQGTQVPYTFGQGTKLEIK
notes: one-arm format as m2
B6: GLS3000 R24Q (antibody, name in Kabat numbering, V domains shown)
VH: QVQLVESGGGVVQPGRSLRLSCAASGFTFSNAWMHWVRQAPGKGLEWVAQIKAKSNNYATYYAESVKGRFTISRDDSKNSLYLQMNSLKTEDTAVYYCRYVHYGAYYGVDAWGQGTTVTVSS
VL: DIVMTQSPLSLPVTPGEPASISCQSSQSLVHSNRNTYLHWYQQKPGQAPRLLIYKVSNRFSGVPDRFSGSGSGTDFTLKISRVEAEDVGVYYCGQGTQVPYTFGQGTKLEIK
notes: one-arm format as m2
B7: GLS3000 R24P (antibody, name in Kabat numbering, V domains shown)
VH: QVQLVESGGGVVQPGRSLRLSCAASGFTFSNAWMHWVRQAPGKGLEWVAQIKAKSNNYATYYAESVKGRFTISRDDSKNSLYLQMNSLKTEDTAVYYCRYVHYGAYYGVDAWGQGTTVTVSS
VL: DIVMTQSPLSLPVTPGEPASISCPSSQSLVHSNRNTYLHWYQQKPGQAPRLLIYKVSNRFSGVPDRFSGSGSGTDFTLKISRVEAEDVGVYYCGQGTQVPYTFGQGTKLEIK
notes: one-arm format as m2
B8: GLS3000 R29P (antibody, name in Kabat numbering, V domains shown)
VH: QVQLVESGGGVVQPGRSLRLSCAASGFTFSNAWMHWVRQAPGKGLEWVAQIKAKSNNYATYYAESVKGRFTISRDDSKNSLYLQMNSLKTEDTAVYYCRYVHYGAYYGVDAWGQGTTVTVSS
VL: DIVMTQSPLSLPVTPGEPASISCRSSQSLVHSNPNTYLHWYQQKPGQAPRLLIYKVSNRFSGVPDRFSGSGSGTDFTLKISRVEAEDVGVYYCGQGTQVPYTFGQGTKLEIK
notes: one-arm format as m2
B9: GLS3000 R29A (antibody, name in Kabat numbering, V domains shown)
VH: QVQLVESGGGVVQPGRSLRLSCAASGFTFSNAWMHWVRQAPGKGLEWVAQIKAKSNNYATYYAESVKGRFTISRDDSKNSLYLQMNSLKTEDTAVYYCRYVHYGAYYGVDAWGQGTTVTVSS
VL: DIVMTQSPLSLPVTPGEPASISCRSSQSLVHSNANTYLHWYQQKPGQAPRLLIYKVSNRFSGVPDRFSGSGSGTDFTLKISRVEAEDVGVYYCGQGTQVPYTFGQGTKLEIK
notes: one-arm format as m2
B10: GLS3000 R45D (antibody, name in Kabat numbering, V domains shown)
VH: QVQLVESGGGVVQPGRSLRLSCAASGFTFSNAWMHWVRQAPGKGLEWVAQIKAKSNNYATYYAESVKGRFTISRDDSKNSLYLQMNSLKTEDTAVYYCRYVHYGAYYGVDAWGQGTTVTVSS
VL: DIVMTQSPLSLPVTPGEPASISCRSSQSLVHSNRNTYLHWYQQKPGQAPDLLIYKVSNRFSGVPDRFSGSGSGTDFTLKISRVEAEDVGVYYCGQGTQVPYTFGQGTKLEIK
notes: one-arm format as m2
B11: GLS3000 R29Y (antibody, name in Kabat numbering, V domains shown)
VH: QVQLVESGGGVVQPGRSLRLSCAASGFTFSNAWMHWVRQAPGKGLEWVAQIKAKSNNYATYYAESVKGRFTISRDDSKNSLYLQMNSLKTEDTAVYYCRYVHYGAYYGVDAWGQGTTVTVSS
VL: DIVMTQSPLSLPVTPGEPASISCRSSQSLVHSNYNTYLHWYQQKPGQAPRLLIYKVSNRFSGVPDRFSGSGSGTDFTLKISRVEAEDVGVYYCGQGTQVPYTFGQGTKLEIK
notes: one-arm format as m2
B12: GLS3000 R29T (antibody, name in Kabat numbering, V domains shown)
VH: QVQLVESGGGVVQPGRSLRLSCAASGFTFSNAWMHWVRQAPGKGLEWVAQIKAKSNNYATYYAESVKGRFTISRDDSKNSLYLQMNSLKTEDTAVYYCRYVHYGAYYGVDAWGQGTTVTVSS
VL: DIVMTQSPLSLPVTPGEPASISCRSSQSLVHSNTNTYLHWYQQKPGQAPRLLIYKVSNRFSGVPDRFSGSGSGTDFTLKISRVEAEDVGVYYCGQGTQVPYTFGQGTKLEIK
notes: one-arm format as m2
B13: GLS3000 R24Y (antibody, name in Kabat numbering, V domains shown)
VH: QVQLVESGGGVVQPGRSLRLSCAASGFTFSNAWMHWVRQAPGKGLEWVAQIKAKSNNYATYYAESVKGRFTISRDDSKNSLYLQMNSLKTEDTAVYYCRYVHYGAYYGVDAWGQGTTVTVSS
VL: DIVMTQSPLSLPVTPGEPASISCYSSQSLVHSNRNTYLHWYQQKPGQAPRLLIYKVSNRFSGVPDRFSGSGSGTDFTLKISRVEAEDVGVYYCGQGTQVPYTFGQGTKLEIK
notes: one-arm format as m2
B14: GLS3000 R29G (antibody, name in Kabat numbering, V domains shown)
VH: QVQLVESGGGVVQPGRSLRLSCAASGFTFSNAWMHWVRQAPGKGLEWVAQIKAKSNNYATYYAESVKGRFTISRDDSKNSLYLQMNSLKTEDTAVYYCRYVHYGAYYGVDAWGQGTTVTVSS
VL: DIVMTQSPLSLPVTPGEPASISCRSSQSLVHSNGNTYLHWYQQKPGQAPRLLIYKVSNRFSGVPDRFSGSGSGTDFTLKISRVEAEDVGVYYCGQGTQVPYTFGQGTKLEIK
notes: one-arm format as m2
B15: GLS3000 R45Q (antibody, name in Kabat numbering, V domains shown)
VH: QVQLVESGGGVVQPGRSLRLSCAASGFTFSNAWMHWVRQAPGKGLEWVAQIKAKSNNYATYYAESVKGRFTISRDDSKNSLYLQMNSLKTEDTAVYYCRYVHYGAYYGVDAWGQGTTVTVSS
VL: DIVMTQSPLSLPVTPGEPASISCRSSQSLVHSNRNTYLHWYQQKPGQAPQLLIYKVSNRFSGVPDRFSGSGSGTDFTLKISRVEAEDVGVYYCGQGTQVPYTFGQGTKLEIK
notes: one-arm format as m2
B16: GLS3000 R24G (antibody, name in Kabat numbering, V domains shown)
VH: QVQLVESGGGVVQPGRSLRLSCAASGFTFSNAWMHWVRQAPGKGLEWVAQIKAKSNNYATYYAESVKGRFTISRDDSKNSLYLQMNSLKTEDTAVYYCRYVHYGAYYGVDAWGQGTTVTVSS
VL: DIVMTQSPLSLPVTPGEPASISCGSSQSLVHSNRNTYLHWYQQKPGQAPRLLIYKVSNRFSGVPDRFSGSGSGTDFTLKISRVEAEDVGVYYCGQGTQVPYTFGQGTKLEIK
notes: one-arm format as m2
B17: GLS3000 R29I (antibody, name in Kabat numbering, V domains shown)
VH: QVQLVESGGGVVQPGRSLRLSCAASGFTFSNAWMHWVRQAPGKGLEWVAQIKAKSNNYATYYAESVKGRFTISRDDSKNSLYLQMNSLKTEDTAVYYCRYVHYGAYYGVDAWGQGTTVTVSS
VL: DIVMTQSPLSLPVTPGEPASISCRSSQSLVHSNINTYLHWYQQKPGQAPRLLIYKVSNRFSGVPDRFSGSGSGTDFTLKISRVEAEDVGVYYCGQGTQVPYTFGQGTKLEIK
notes: one-arm format as m2
B18: GLS3000 R29S (antibody, name in Kabat numbering, V domains shown)
VH: QVQLVESGGGVVQPGRSLRLSCAASGFTFSNAWMHWVRQAPGKGLEWVAQIKAKSNNYATYYAESVKGRFTISRDDSKNSLYLQMNSLKTEDTAVYYCRYVHYGAYYGVDAWGQGTTVTVSS
VL: DIVMTQSPLSLPVTPGEPASISCRSSQSLVHSNSNTYLHWYQQKPGQAPRLLIYKVSNRFSGVPDRFSGSGSGTDFTLKISRVEAEDVGVYYCGQGTQVPYTFGQGTKLEIK
notes: one-arm format as m2
B19: GLS3000 R29V (antibody, name in Kabat numbering, V domains shown)
VH: QVQLVESGGGVVQPGRSLRLSCAASGFTFSNAWMHWVRQAPGKGLEWVAQIKAKSNNYATYYAESVKGRFTISRDDSKNSLYLQMNSLKTEDTAVYYCRYVHYGAYYGVDAWGQGTTVTVSS
VL: DIVMTQSPLSLPVTPGEPASISCRSSQSLVHSNVNTYLHWYQQKPGQAPRLLIYKVSNRFSGVPDRFSGSGSGTDFTLKISRVEAEDVGVYYCGQGTQVPYTFGQGTKLEIK
notes: one-arm format as m2
B20: GLS3000 R24T (antibody, name in Kabat numbering, V domains shown)
VH: QVQLVESGGGVVQPGRSLRLSCAASGFTFSNAWMHWVRQAPGKGLEWVAQIKAKSNNYATYYAESVKGRFTISRDDSKNSLYLQMNSLKTEDTAVYYCRYVHYGAYYGVDAWGQGTTVTVSS
VL: DIVMTQSPLSLPVTPGEPASISCTSSQSLVHSNRNTYLHWYQQKPGQAPRLLIYKVSNRFSGVPDRFSGSGSGTDFTLKISRVEAEDVGVYYCGQGTQVPYTFGQGTKLEIK
notes: one-arm format as m2

Chain of CD3ε homodimer protein (P07766 23-126 limits assumed): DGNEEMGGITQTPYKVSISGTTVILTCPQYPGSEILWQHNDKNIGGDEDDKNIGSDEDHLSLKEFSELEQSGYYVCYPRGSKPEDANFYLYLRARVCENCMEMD

The experiment concerns the target CD3ε homodimer protein (human, UniProt P07766 23-126, limits assumed). The experiment can be described thus: SPR, immobilized CD3ε homodimer.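 Further: biacore T200 surface plasmon resonance at 25 °C, antibody variants flowed as analytes over amine-coupled CD3ε homodimer on a CM4 chip, variant binding amount divided by that of GLS3000 antibody.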
For B1, the “ratio of amounts bound (vs GLS3000)” value is 0.83.

B2: the “ratio of amounts bound (vs GLS3000)” value came to 0.56.

With B3, the “ratio of amounts bound (vs GLS3000)” value worked out at 0.89.

Regarding B4, the “ratio of amounts bound (vs GLS3000)” value came out at 0.75.

B5: the “ratio of amounts bound (vs GLS3000)” value is 0.41.

As for B6, the “ratio of amounts bound (vs GLS3000)” value worked out at 0.9.

Turning to B7, the “ratio of amounts bound (vs GLS3000)” value turned out to be 0.7.

Consider B8, for which the “ratio of amounts bound (vs GLS3000)” value turned out to be 0.31.

For B9, the “ratio of amounts bound (vs GLS3000)” value turned out to be 0.63.

Consider B10, for which the “ratio of amounts bound (vs GLS3000)” value amounted to 0.77.

B11: the “ratio of amounts bound (vs GLS3000)” value was determined as 0.69.

For the molecule B12, the “ratio of amounts bound (vs GLS3000)” value was found to be 0.63.

On to B13, for which the “ratio of amounts bound (vs GLS3000)” value came to 0.87.

Consider B14, for which the “ratio of amounts bound (vs GLS3000)” value is 0.67.

Consider B15, for which the “ratio of amounts bound (vs GLS3000)” value was determined as 0.86.

Consider B16, for which the “ratio of amounts bound (vs GLS3000)” value amounted to 0.89.

Turning to B17, the “ratio of amounts bound (vs GLS3000)” value was found to be 0.37.

As to B18, the “ratio of amounts bound (vs GLS3000)” value is 0.68.

Turning to B19, the “ratio of amounts bound (vs GLS3000)” value came to 0.34.

For the molecule B20, the “ratio of amounts bound (vs GLS3000)” value was found to be 0.88.
